The record followed here is paper PMC11270187 (Antibodies, 2024).

Test [1] has as its target T1, HLA-DR on BJAB cells (Homo sapiens; endogenous HLA-DR of BJAB …).
T1 construct: HLA-DR α chain, endogenous on BJAB B-lymphoblastoid cells; HLA-DR β chain, endogenous on BJAB B-lymphoblastoid cells; also called HLA-DR-expressing B-lymphoblastoid cell line BJAB; source: endogenous, on BJAB cells
The experiment in a line: flow cytometry on cells; screen: purified IgGs at 10 µg/mL on HLA-DR-expressing BJAB cells, Fc Block, 1 h at 4 °C, detected with AF488 goat anti-human IgG Fcγ. The note with it: one partner purified. A general note: A flow cytometer gives signals particle by particle.

Test [2] concerns the target T2, TEV-cleaved recombinant HLA-DR (Homo sapiens, …).
T2 construct: also called TEV-cleaved HLA-DR; source: HEK 293S (GnT I-/-), purified (HisTrap Ni-NTA, SEC), TEV-cleaved; for crystallization also EndoH-treated and purified a second time
The experiment in a line: BLI; Fabs loaded on FAB2G biosensors; two-fold dilutions of TEV-cleaved HLA-DR from 500 nM; 25 °C; PBS pH 7.4, 0.01% BSA, 0.002% Tween; 1:1 model. The note with it: both partners purified. (In BLI a coated tip is dipped into the sample, and binding shifts an interference pattern.)

Test [3] concerns the target T1, HLA-DR on BJAB cells. The experiment in a line: flow cytometry on cells; full antibody titration of purified IgGs on HLA-DR-expressing BJAB cells, Fc Block, 1 h at 4 °C, detected with AF488 goat anti-human IgG Fcγ; also after storage of the IgGs at -20, 4 or 40 °C for up to 4 weeks. Conditions: one partner purified.

B1: parental 44H10 IgG (antibody, V domains shown)
VH: QVQLKESGPGLVAPSQSLSITCTVSGFSLTSYGVHWVRQPPGKGLEWLGVIWAGGSINYNSALMSRLSISKDNFKSQVFLKMSSLQTDDTAMYYCARAYGDYVHYAMDYWGQGTSVTASS
VL: DIQMTQSPSSLSASLGQRVSLTCRASQEISGYLTWLQQKPDGTIKRLVYAASTLDSGVPKRFSGSRSGSDYSLTISSLESEDFADYYCLQYTNYPLTFGAGTKLELK
notes: murine IGHV2-9; Fab part also in PDB 8EUQ; murine IGKV9-124; also in PDB 8EUQ; IgG; also called mAb 44H10; murine mAb 44H10; source: FreeStyle 293-F, transfected, purified (protein A, SEC)
For B1, the binding result in the test with HLA-DR on BJAB cells [1] was “binds”.

B2:  (Fab, V domains shown)
VH: QVQLQESGPGLVKPSETLSLTCTVSGFSLTSYGVHWIRQPPGKGLEWIGVIWAGGSINYNSALMSRVTISKDTSKNQVSLKLSSVTAADTAVYYCARAYGDYVHYAMDYWGQGTLVTVSS
VL: DIQMTQSPSSLSASVGDRVTITCRASQEISGYLTWLQQKPGKAPKLLIYAASTLDSGVPSRFSGSGSGTDFTLTISSLQPEDFATYYCLQYTNYPLTFGQGTKLEIK
notes: as the heavy chain of m11 with the changes below; as the light chain of m11; also called V14-V71K/F78V double mutant; V14-V71K-F78V; source: FreeStyle 293-F, transfected, purified (KappaSelect, MonoS, SEC)
Turning to B2, in test [2], the dissociation constant Kd came out at 206 nM.

B3: humanized 44H10 version 20 IgG (V17 with light chain S60K back-mutation) (antibody, V domains shown)
VH: QVTLKESGPVLVKPTETLTLTCTVSGFSLTSYGVHWIRQPPGKALEWLAVIWAGGSISYSTSLMSRLTISKDTSKSQVVLTMTNMDPVDTATYYCARAYGDYVHYAMDYWGQGTLVTVSS
VL: DIQMTQSPSSLSASVGDRVTITCRASQEISGYLTWLQQKPGKAPKLLIYAASTLDSGVPKRFSGSGSGTDFTLTISSLQPEDFATYYCLQYTNYPLTFGQGTKLEIK
notes: as the heavy chain of m5; as the light chain of m5 with the change below; IgG with human Fc; also called V20; source: FreeStyle 293-F, transfected, purified (protein A, SEC)
For B3, the “fold improvement of EC50 against V17” value with HLA-DR on BJAB cells [3] was about 3 fold.

B4: humanized 44H10 version 21 IgG (V17 with light chain S60K and G66R back-mutations) (antibody, V domains shown)
VH: QVTLKESGPVLVKPTETLTLTCTVSGFSLTSYGVHWIRQPPGKALEWLAVIWAGGSISYSTSLMSRLTISKDTSKSQVVLTMTNMDPVDTATYYCARAYGDYVHYAMDYWGQGTLVTVSS
VL: DIQMTQSPSSLSASVGDRVTITCRASQEISGYLTWLQQKPGKAPKLLIYAASTLDSGVPKRFSGSRSGTDFTLTISSLQPEDFATYYCLQYTNYPLTFGQGTKLEIK
notes: as the heavy chain of m5 (IGHV2-26 with Kabat 44H10 CDRs); as the light chain of m5 with the changes below; IgG with human Fc; also called V21; source: FreeStyle 293-F, transfected, purified (protein A, SEC)
For B4, the “fold improvement of EC50 against V17” value with HLA-DR on BJAB cells [3] is about 3 fold.

B5: humanized 44H10 version 19 IgG (V17 with light chain G66R back-mutation) (antibody, V domains shown)
VH: QVTLKESGPVLVKPTETLTLTCTVSGFSLTSYGVHWIRQPPGKALEWLAVIWAGGSISYSTSLMSRLTISKDTSKSQVVLTMTNMDPVDTATYYCARAYGDYVHYAMDYWGQGTLVTVSS
VL: DIQMTQSPSSLSASVGDRVTITCRASQEISGYLTWLQQKPGKAPKLLIYAASTLDSGVPSRFSGSRSGTDFTLTISSLQPEDFATYYCLQYTNYPLTFGQGTKLEIK
notes: as the heavy chain of m5; as the light chain of m5 with the change below; IgG with human Fc; also called V19; source: FreeStyle 293-F, transfected, purified (protein A, SEC)
As to B5, in the test with HLA-DR on BJAB cells [3], the “fold improvement of EC50 against V17” value was about 3 fold.

B6: humanized 44H10 version 22 IgG (antibody, V domains shown)
VH: QVQLQESGPGLVKPSETLSLTCTVSGFSLTSYGVHWIRQPPGKGLEWIGVIWAGGSINYNSALMSRVTISKDTSKNQVSLKLSSVTAADTAVYYCARAYGDYVHYAMDYWGQGTLVTVSS
VL: DIQMTQSPSSLSASVGDRVTITCRASQEISGYLTWLQQKPGKAPKLLIYAASTLDSGVPKRFSGSRSGTDFTLTISSLQPEDFATYYCLQYTNYPLTFGQGTKLEIK
notes: as the heavy chain of m10 (IGHV4-59 with Kabat 44H10 CDRs) with the back-mutations below; as the light chain of m5 (IGKV1-16, printed here as IGHK1-16, with Kabat 44H10 CDRs) with the back-mutations below; IgG with human Fc; also called V22; lead humanized candidate; source: FreeStyle 293-F, transfected, purified (protein A, SEC)
Take B6: the “fold reduction in EC50 against parental 44H10 IgG” value with HLA-DR on BJAB cells [3] was under 2 fold.

In general, Kd refers to the constant that tells how readily two partners part at equilibrium.
